The EC50 is the midpoint of the concentration-response curve.

Assay [1] addresses K18 fragment of tau (UniProt P10636-8 244-372). Description: western blot of tau fragments. Here is the method:
(§1) T40 tau monomer or AD-tau were chemically and thermally denatured by 1:10 dilution in 8M guanidine hydrochloride and heating at 100° C. for 15 min, and non-denatured controls were diluted in Tris-buffered saline (TBS) at RT. Denatured or non-denatured tau was then diluted 1:50 in TBS and applied to 0.2 μm nitrocellulose membrane using a vacuum apparatus. For western blots, tau isoforms and fragments were diluted in SDS sample buffer, heated 10 min at 100° C., run on 12.5% SDS-PAGE gels and transferred to 0.2 μm nitrocellulose membrane. […] Infrared dye labeled secondary antibodies (LiCor) were used to detect primary antibody binding, with analysis on a LiCor scanner (LiCor).
On the technique in general: Immunoblotting shows a protein as a band on a membrane.

Assay [2] concerns the target ΔK18-P fragment of tau (Homo sapiens (Human), UniProt P10636 1-758). Description: western blot of tau fragments. The procedure: as §1
Assay [3] deals with T1, AD-tau (Alzheimer's brain derived tau) (human, UniProt P10636-8 2-441, limits assumed).
T1 construct: Misfolded fibrillar tau from brain extract, not a single defined polypeptide; also called human AD-brain-derived pathological tau; AD tau PHF
In words: sandwich ELISA, tau antigen captured by K9JA. Here is the method: (§2) Blocking was performed with BlockAce solution (Abd Serotec) at 4° C. overnight. […] Plates were washed with PBST and HRP-conjugated anti-mouse (Jackson Immunoresearch) secondary antibodies were applied for 2 h at 22° C. Plates were washed and tetramethylbenzidine peroxidase substrate (KPL laboratories) was added to wells to provide a colorimetric readout, quenched with 10% phosphoric acid and then absorbance measured at 450 nm (Molecular Devices SpectraMax).
(§3) Towards the goal of generating conformation-selective tau mAbs, mice were inoculated with human AD brain-derived extracts enriched in insoluble tau (AD-tau). Hybridoma clones generated from immunized mice were screened by sandwich ELISA to simultaneously assess binding of antibodies to tau monomer, AD-tau seeded recombinant tau preformed fibrils (AD-P1 PFFs), and AD-tau. […] Clones that bound AD-tau and AD-P1 PFFs with greater apparent affinity than tau monomer were prioritized and subsequently sub-cloned by limiting dilutions to monoclonal populations.

The target of assay [4] is T2, T40 tau monomer (full length tau protein, 2N4R isoform) (human, UniProt P10636 2-758).
T2 construct: no sentence says so outright; also called T40 monomer; human T40 tau
In words: sandwich ELISA, tau antigen captured by K9JA. Here is the method:
as §2, §3

In assay [5] the target is T3, AD-P1 PFFs (AD-tau seeded recombinant tau preformed fibrils) (human, UniProt P10636 2-758).
T3 construct: Fibrils made from 36 uM T40 tau (2N4R) and 4 uM AD-tau seeds; also called T40 AD-P1 PFFs
In words: sandwich ELISA, tau antigen captured by K9JA. The procedure: as §2, §3
Background: ELISA stands for enzyme-linked immunosorbent assay.

Chain of ΔK18-P fragment of tau (P10636 other isoform, or with tags, fused parts or gaps mutant): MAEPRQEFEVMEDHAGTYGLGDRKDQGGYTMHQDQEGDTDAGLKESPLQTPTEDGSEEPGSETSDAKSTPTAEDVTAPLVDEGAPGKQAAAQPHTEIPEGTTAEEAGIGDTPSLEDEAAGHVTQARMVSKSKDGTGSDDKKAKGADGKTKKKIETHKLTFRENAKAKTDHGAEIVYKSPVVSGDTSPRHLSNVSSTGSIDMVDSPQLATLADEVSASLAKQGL
Chain of K18 fragment of tau (P10636 561-689 limits assumed): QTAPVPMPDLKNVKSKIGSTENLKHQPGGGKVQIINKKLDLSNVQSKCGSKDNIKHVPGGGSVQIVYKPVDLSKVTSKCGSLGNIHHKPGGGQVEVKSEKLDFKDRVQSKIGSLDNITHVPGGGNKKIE
T2 sequence (P10636 other isoform, or with tags, fused parts or gaps limits assumed): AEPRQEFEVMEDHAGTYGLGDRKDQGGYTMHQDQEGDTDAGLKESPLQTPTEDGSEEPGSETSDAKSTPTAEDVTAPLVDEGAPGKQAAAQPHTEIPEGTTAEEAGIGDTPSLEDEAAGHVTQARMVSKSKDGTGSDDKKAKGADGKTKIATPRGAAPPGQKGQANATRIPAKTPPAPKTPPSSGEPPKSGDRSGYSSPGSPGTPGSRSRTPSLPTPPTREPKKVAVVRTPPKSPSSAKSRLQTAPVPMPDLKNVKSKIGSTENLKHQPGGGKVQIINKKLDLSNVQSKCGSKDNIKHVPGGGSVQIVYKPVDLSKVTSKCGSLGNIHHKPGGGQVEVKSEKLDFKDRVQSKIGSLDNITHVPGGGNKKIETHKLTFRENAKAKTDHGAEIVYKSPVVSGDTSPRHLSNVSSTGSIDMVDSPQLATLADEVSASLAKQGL
T3 sequence (P10636 other isoform, or with tags, fused parts or gaps limits assumed): as above
T1 sequence (P10636 other isoform, or with tags, fused parts or gaps limits assumed): as above

B1: SKT82 (antibody, mouse IgG2a, V domains shown)
VH: EVQLQQSGAELVRSGASVKLSCTASGFNIKDYYMHWVKQRPEQGLEWIGWFDPENGDAEYAPKFQDKATMTADTSSNAAYLQLSSLTSEDTAVYYCNGYLYWGQGTLVTVSS
VL: DVLMTQTPLSLPVSLGDQASISCRSSQNIVHNNGNTYLEWYLQKPGQSPKLLIYKVSNRFSGVPDRFSGSGSGTDFTLKISRVEAEDLGIYYCFQGSHVPHTFGGGTRLEIK
notes: Mouse hybridoma monoclonal antibody purified from culture medium; also called tau mAb SKT82
As to B1, the binding result in assay [1] and in assay [2] was “no binding (tested: 20 µg/mL)” each time. For the same molecule, the 50% effective concentration (EC50) in assay [3] was 0.17 nM; in assay [4], 4.13 nM; in assay [5] it was 2.38 nM.

B2: DMR7 (antibody, mouse IgG1, V domains shown)
VH: QVQLQQPGAELVRPGASVKLSCKASGYIFTTYWMNWVKQRPGQGLEWIAMIDPSDSETHYNQMFKDKATLTVDTSSSTAYMQLSGLTSEDSAVYYCARGEGYWGQGTTLTVSS
VL: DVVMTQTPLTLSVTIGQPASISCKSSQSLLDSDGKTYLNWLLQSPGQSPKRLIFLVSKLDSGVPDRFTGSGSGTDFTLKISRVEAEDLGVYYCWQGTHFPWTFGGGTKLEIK
notes: Mouse hybridoma monoclonal antibody purified from culture medium; also called tau mAb DMR7; MHC2825
In the case of B2, the binding result in assay [1] and in assay [2] was “no binding (tested: 20 µg/mL)” throughout. For the same molecule, the EC50 in assay [3] stood at 0.1 nM; in assay [4], 12 nM; in assay [5], 0.46 nM.

These data come from patent publication US20230235034A1 (University of Pennsylvania, published 2023).
